Key:
His-tag PD-L1 antigen [1] = biological target: T1, His-tag PD-L1 antigen (Homo sapiens, UniProt Q9NZQ7); test: BLI
[2] = biological target: mFc-tag CD47 antigen (human) (UniProt Q08722); test: ELISA
[3] = biological target: T2, PD-L1 on CD47+/PD-L1+ tumor cells (RKO, ES-2, HT-1080, HCC827) (human (endogenous in RKO, ES-2, …, UniProt Q9NZQ7)); test: flow cytometry on cells
PD-L1 on CHO-PD-L1 cells [4] = biological target: T3, PD-L1 on CHO-PD-L1 cells (human, UniProt Q9NZQ7); test: flow cytometry on cells
[5] = biological target: T2, PD-L1 on CD47+/PD-L1+ tumor cells (RKO, …); test: flow cytometry on cells; remark: listed apart in the source
[6] = biological target: mFc-tag CD47 antigen (human) (UniProt Q08722); test: BLI
His-tag PD-L1 antigen [7] = biological target: T1, His-tag PD-L1 antigen; test: ELISA
PD-L1 on CHO-PD-L1 cells [8] = biological target: T3, PD-L1 on CHO-PD-L1 cells; test: flow cytometry on cells; remark: listed apart in the source

T1 sequence (Q9NZQ7 19-238): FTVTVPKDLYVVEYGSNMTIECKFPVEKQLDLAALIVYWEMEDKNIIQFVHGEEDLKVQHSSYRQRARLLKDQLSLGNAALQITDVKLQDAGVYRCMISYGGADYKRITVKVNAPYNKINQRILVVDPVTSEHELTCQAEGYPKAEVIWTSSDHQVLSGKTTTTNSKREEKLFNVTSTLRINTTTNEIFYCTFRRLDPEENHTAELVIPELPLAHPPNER
T2 sequence (Q9NZQ7 19-290): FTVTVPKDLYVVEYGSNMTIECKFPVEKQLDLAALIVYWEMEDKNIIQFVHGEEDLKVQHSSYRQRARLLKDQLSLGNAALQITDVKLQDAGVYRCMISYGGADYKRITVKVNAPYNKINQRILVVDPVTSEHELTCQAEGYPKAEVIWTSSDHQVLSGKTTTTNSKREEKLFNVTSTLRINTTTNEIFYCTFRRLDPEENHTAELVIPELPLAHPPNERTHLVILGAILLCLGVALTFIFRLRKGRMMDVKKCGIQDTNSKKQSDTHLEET
T3 sequence (Q9NZQ7 19-290): as above
Sequence of mFc-tag CD47 antigen (human) (Q08722 19-323): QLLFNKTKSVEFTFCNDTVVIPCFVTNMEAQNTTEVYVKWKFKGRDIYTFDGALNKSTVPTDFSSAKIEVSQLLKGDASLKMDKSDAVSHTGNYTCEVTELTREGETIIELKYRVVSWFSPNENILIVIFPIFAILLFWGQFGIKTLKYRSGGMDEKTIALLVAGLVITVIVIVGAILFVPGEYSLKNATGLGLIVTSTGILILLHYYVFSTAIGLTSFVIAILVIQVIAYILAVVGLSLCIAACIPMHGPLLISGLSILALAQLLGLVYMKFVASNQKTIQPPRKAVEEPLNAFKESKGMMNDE

B1: IMM2520 (bispecific antibody, V domains shown)
VH: QVQLVQSGAEVKKPGASVKVSCKASGYTFTSNWMHWVRQAPGQGLEWMGMIHPNSGSSNYNEKFKSRVTMTRDTSTSTVYMELSSLRSEDTAVYYCARSYYGSSPYYFDYWGQGTLVTVSS
VL: DIQMTQSPSSLSASVGDRVTITCRASQDIINYLNWYQQKPGKAPKLLIYYTSRLHSGVPSRFSGSGSGTDFTFTISSLQPEDIATYYCQQGDTLPWTFGQGTKVEIK
His-tag PD-L1 antigen [1]
  Kd: 0.576 nM
[2]
  EC50: 0.079 nM
[3]
  IC50: 0.0123 nM
PD-L1 on CHO-PD-L1 cells [4]
  IC50: 0.121 nM
[5]
  EC50: 0.145 nM
[6]
  Kd: 2.49 nM
His-tag PD-L1 antigen [7]
  EC50: 0.456 nM
PD-L1 on CHO-PD-L1 cells [8]
  EC50: 0.845 nM

Source: article PMC11564011 (Heliyon, 2024)
